The values that follow come from patent US20210380675A1 (Kyowa Kirin, published 2021).

The target in test [1] is T1, cynomolgus IL-36α, truncated (cynomolgus macaque (Macaca fascicularis), UniProt Q9UHA7 14-158 (human entry), limits assumed).
T1 construct: Untagged after removal of the His-SUMO tag; also called cynomolgus IL-36 alpha; cyIL-36alpha
T1 chain: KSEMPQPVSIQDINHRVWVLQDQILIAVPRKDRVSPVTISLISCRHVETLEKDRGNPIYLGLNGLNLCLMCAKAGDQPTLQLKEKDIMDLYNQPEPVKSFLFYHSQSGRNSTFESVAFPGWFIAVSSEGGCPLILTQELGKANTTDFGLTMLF
Description: SPR, Biacore, 1:1 Langmuir fit; heads of c3 and c4 printed swapped. As for the experimental part:
(§1) The humanized antibodies obtained in Example 6 were tested for their binding to recombinant human or cynomolgus macaque IL36a and IL-36γ in Biacore assays. The association time was set to 60 seconds, and the final dissociation time was set to 600 seconds. Equilibrium dissociation constant KD (kd/ka) of exemplary antibodies was determined using a 1:1 Langmuir fit model (see Tables 17-18 below).

For test [2], the target named is T2, cynomolgus IL-36γ, truncated (cynomolgus macaque (Macaca fascicularis), UniProt Q9NZH8 18-167 (human entry), limits assumed).
T2 construct: Untagged after removal of the His-SUMO tag; also called cynomolgus IL-36 gamma; cyIL-36gamma
T2 chain: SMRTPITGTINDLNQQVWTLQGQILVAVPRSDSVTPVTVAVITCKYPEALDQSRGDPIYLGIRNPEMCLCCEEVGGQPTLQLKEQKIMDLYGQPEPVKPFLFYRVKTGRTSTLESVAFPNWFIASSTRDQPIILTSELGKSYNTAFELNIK
The description is as above. The procedure: as §1

Test [3] concerns the target T3, human IL-36γ, truncated (human, UniProt Q9NZH8 18-169).
T3 construct: Bought from R&D Systems (cat 6835-IL); also called human IL-36 gamma; hIL-36gamma
T3 sequence: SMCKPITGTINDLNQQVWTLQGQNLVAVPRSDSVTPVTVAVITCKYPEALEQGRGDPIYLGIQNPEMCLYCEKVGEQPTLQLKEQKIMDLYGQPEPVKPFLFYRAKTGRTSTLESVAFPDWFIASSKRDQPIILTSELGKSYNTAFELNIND
The description is as above. The procedure:
as §1

Test [4] addresses T4, human IL-36α(R12), truncated (human, UniProt Q9UHA7 6-158).
T4 construct: Untagged after removal of the His-SUMO tag; also called hIL-36alpha
T4 chain: T1 chain with S2I, E3D, M4T, P7R, V8G, I24T, V34M, S40A, A74V
The test is described as above. As for the experimental part:
as §1

For test [5], the target named is T1, cynomolgus IL-36α, truncated. Description: SPR, Biacore, 1:1 Langmuir fit. The procedure: as §1
Test [6] has as its target T2, cynomolgus IL-36γ, truncated. Description: SPR, Biacore, 1:1 Langmuir fit. The procedure:
as §1

In test [7] the target is T3, human IL-36γ, truncated. Description: SPR, Biacore, 1:1 Langmuir fit. As for the experimental part: as §1
Test [8] concerns the target T4, human IL-36α(R12), truncated. Description: SPR, Biacore, 1:1 Langmuir fit. The procedure: as §1
Test [9] addresses T5, human IL-36α (R&D Systems cat#6995-IL-010/CF) (human, UniProt Q9UHA7 6-158).
T5 sequence (looked up): T1 chain with S2I, E3D, M4T, P7Q, V8G, I24T, V34M, S40A, A74V
Description: cell-based or functional assay.

Test [10] deals with T3, human IL-36γ, truncated. Description: cell-based or functional assay.
In test [11] the target is T2, cynomolgus IL-36γ, truncated. Description: cell-based or functional assay.
In test [12] the target is T3, human IL-36γ, truncated. Description: cell-based or functional assay. The source holds these as a separate data set.
In test [13] the target is T1, cynomolgus IL-36α, truncated. Description: cell-based or functional assay.
Test [14] deals with T4, human IL-36α(R12), truncated. Description: cell-based or functional assay.
The target in test [15] is T3, human IL-36γ, truncated. Description: cell-based or functional assay. The source holds these as a separate data set.
Test [16] has as its target T4, human IL-36α(R12), truncated. Description: cell-based or functional assay.
Test [17] has as its target T1, cynomolgus IL-36α, truncated. Description: SPR, Biacore T200, antibody on chip, IL-36 as analyte, 1:1 Langmuir fit. The procedure:
(§2) Antibodies were further tested for their binding to recombinant human or cynomolgus IL36α, IL-36γ in Biacore assays. In order to kinetically analyze the binding activity of the IL-36α and IL-36γ dual antagonist antibodies, the binding activity to human and cynomolgus IL-36α and IL-36γ was measured by surface plasmon resonance method (SPR). All of the following manipulations were carried out using a Biacore T200 (GE Healthcare Life Sciences, Pittsburgh, Pa.).
(§3) To determine antibody affinity to human and cynomolgus IL36, recombinant antibodies were immobilized on a CM5 sensor chip (cat# BR100012, GE Healthcare Life Sciences, Pittsburgh, Pa.) by an amine coupling chemistry. In particular, the kinetic assay was carried out by immobilizing on the chip approximately 2000 RU of recombinant antibody. Thereafter, recombinant human or cynomolgus IL36 proteins, serially diluted from a high concentration, were allowed to run at a flow rate of 30 μL/min onto the chip for 420 seconds. The dissociation time was 3600 seconds and the binding curves were measured at 25° C. Regeneration was performed with 10 mM glycine pH 1.5 for 30s. Alternatively, the analytes were injected with increasing concentrations in a single cycle, the surface not being regenerated between injections, using a method referred to as “single cycle kinetics.” In particular, either anti-human or anti-mouse Fc specific antibodies were immobilized on a CM5 sensor chip (cat# BR100012, GE Healthcare Life Sciences, Pittsburgh, Pa.) by an amine coupling chemistry. Thereafter, IL-36α and IL-36γ dual antagonist mouse/human chimeric or mouse antibodies were captured at approximately 200 RUs, followed by injections of increasing concentrations of recombinant human and cynomolgus IL36 proteins. The association time was 300 seconds, and the final dissociation time was 1200 seconds. At the end of the analyte injections, the surface was regenerated with either 3M MgCl₂ (anti-human Fc capture antibody) for 30 s or 10 mM glycine-HCl pH 1.7 for 180 s (anti-mouse IgG capture antibody).
(§4) The raw data were double referenced by subtraction of the signals from a reference flow cell without immobilized ligand and a buffer blank. The sensorgram corresponding to each concentration was obtained.

Test [18] has as its target T2, cynomolgus IL-36γ, truncated. The description is as above. As for the experimental part:
as §2, §3, §4

Test [19] addresses T3, human IL-36γ, truncated. The test is described as above. The procedure:
as §2, §3, §4

The target of test [20] is T4, human IL-36α(R12), truncated. The test is described as above. The procedure:
as §2, §3, §4

In test [21] the target is T3, human IL-36γ, truncated. Description: cell-based or functional assay. The source holds these as a separate data set.
For test [22], the target named is T4, human IL-36α(R12), truncated. Description: cell-based or functional assay.

Numbering of substitutions follows the chain as printed.

B1: 144L249B LV9 HV11 (antibody, V domains shown)
VH: QVQLVQSGAEVKKPGASVKVSCKASGFNIKDTYIYWVRQAPGQGLEWIGRIDPAIGTTRYDPKFQGKATLTTDTSTNTAYLELSSLRSEDTAVYYCARYDYSGSSFYFDYWGQGTLVTVSS
VL: QAVVTQEPSLTVSPGGTVTLTCRSSTGAVTTSNYANWVQEKPGQLFTGLIGGTNDRAPGVPARFSGSLLGGKAALTLSGAQPEDEADYFCALWYSNHLVFGGGTKLTVL
notes: Humanized
Regarding B1, the koff in test [1] came to 0.00135 s⁻¹; in [2], 0.000866 s⁻¹; in [3], 0.000706 s⁻¹; in [4], 0.00102 s⁻¹. The kon in [1] was found to be 1.46e+06 M⁻¹ s⁻¹; in [2], 948000 M⁻¹ s⁻¹; in [3], 888000 M⁻¹ s⁻¹; in [4] it was 791000 M⁻¹ s⁻¹. Moreover, the Kd was determined as 0.927 nM in [5], 0.913 nM in [6], 0.795 nM in test [7] and 1.29 nM in [8]. Moreover, the “IC50 of IL-8 secretion (AlphaLISA), HaCaT, 10 nM human IL-36α” value in [9] is 7.68 nM. The “IC50 of IL-8 secretion (AlphaLISA), HaCaT, 10 nM human IL-36γ” value in test [10] was determined as 16.5 nM.

B2: 144L249B LV7a HV11 (antibody, V domains shown)
VH: B1 VH
VL: B1 VL with E40Q, L45A, L77I
notes: Humanized
For B2, the koff is 0.0014 s⁻¹ in test [1], 0.000831 s⁻¹ in test [2], 0.000678 s⁻¹ in test [3] and 0.00103 s⁻¹ in test [4]. For the same molecule, the kon in test [1] amounted to 1.4e+06 M⁻¹ s⁻¹; in [2], 913000 M⁻¹ s⁻¹; in test [3], 859000 M⁻¹ s⁻¹; in [4] it was 749000 M⁻¹ s⁻¹. The equilibrium dissociation constant (Kd) is 1 nM in test [5], 0.91 nM in [6], 0.789 nM in test [7] and 1.37 nM in test [8]. The “IC50 of IL-8 secretion (AlphaLISA), HaCaT, 10 nM human IL-36α” value in test [9] was determined as 9.2 nM. In [10], the “IC50 of IL-8 secretion (AlphaLISA), HaCaT, 10 nM human IL-36γ” value was found to be 25.8 nM.

B3: 144L249B LV9 HV10b (antibody, V domains shown)
VH: B1 VH with N77S
VL: B1 VL
notes: Humanized
On to B3, for which the koff is 0.00126 s⁻¹ in [1], 0.000969 s⁻¹ in test [2], 0.000728 s⁻¹ in test [3] and 0.000989 s⁻¹ in test [4]. Also, the kon in [1] was 1.34e+06 M⁻¹ s⁻¹; in [2], 855000 M⁻¹ s⁻¹; in test [3], 772000 M⁻¹ s⁻¹; in [4], 714000 M⁻¹ s⁻¹. Moreover, the Kd worked out at 0.944 nM in test [5], 1.13 nM in [6], 0.942 nM in test [7] and 1.39 nM in test [8]. Also, the “IC50 of IL-8 secretion (AlphaLISA), HaCaT, 10 nM human IL-36α” value in test [9] came out at 6.61 nM. Moreover, the “IC50 of IL-8 secretion (AlphaLISA), HaCaT, 10 nM human IL-36γ” value in test [10] came out at 20.7 nM.

B4: 144L249B (antibody, V domains shown)
VH: EVQLQQSGAELVKPGASVKLSCTASGFNIKDTYIYWVKQRPEQGLEWIGRIDPAIGTTRYDPKFQGKATLTADTSSNTAFLQLSSLTSEDTAVYYCARYDYSGSSFYFDYWGRGTTLTVSS
VL: QAVVTQESALTTSPGETVTLTCRSSTGAVTTSNYANWVQEKPDHLFTGLIGGTNNRAPGVPARFSGSLIGDKAALTITGAQTEDEAIYFCALWYSNHLVFGGGTKLTVL
notes: Mouse monoclonal from hybridoma; mouse IgG heavy and lambda light chain; also called mouse antibody 144L249B
For B4, the “IC50 of IL-8 secretion, HaCaT, 10 nM cynomolgus IL-36γ, FIG. 2D” value in [11] came to 11.8 nM. For the same molecule, the “IC50 of IL-8 secretion, HaCaT, 10 nM human IL-36γ, FIG. 1F” value in test [12] stood at 9.81 nM. The off-rate constant (koff) was 0.00105 s⁻¹ in [1]; 0.000326 s⁻¹ in test [2]; 0.000395 s⁻¹ in test [3]; 0.000785 s⁻¹ in test [4]; 0.000839 s⁻¹ in test [17]; 0.000197 s⁻¹ in [18]. Besides, the koff in [19] is 0.000194 s⁻¹; in test [20] it was 0.000899 s⁻¹. Besides, the association rate constant (kon) in test [1] was 905000 M⁻¹ s⁻¹; in test [2] it was 1.13e+06 M⁻¹ s⁻¹; in test [3], 990000 M⁻¹ s⁻¹; in test [4], 515000 M⁻¹ s⁻¹; in test [17], 658000 M⁻¹ s⁻¹; in test [18] it was 631000 M⁻¹ s⁻¹. In addition, the figures for the kon in [19] and in test [20] were 516000 M⁻¹ s⁻¹ and 539000 M⁻¹ s⁻¹, respectively. Also, the “IC50 of IL-8 secretion, HaCaT, 10 nM cynomolgus IL-36α, FIG. 2B” value in [13] was 7.94 nM. The “IC50 of IL-8 secretion, HaCaT, 10 nM human IL-36α, FIG. 1C” value in [14] is 14.5 nM. In test [15], the “IC50 of IL-8 secretion, primary human keratinocytes, 8.4 nM human IL-36γ, FIG. 4C” value is 9.28 nM. Also, in test [16], the “IC50 of IL-8 secretion, primary human keratinocytes, 6.25 nM human IL-36α, FIG. 4A” value came to 13.8 nM. Further, the Kd in test [17] turned out to be 1.28 nM; in test [18] it was 0.312 nM; in test [19] it was 0.377 nM; in test [20], 1.67 nM; in [5], 1.16 nM; in test [6], 0.288 nM. In addition, the Kd turned out to be 0.399 nM in test [7] and 1.53 nM in test [8]. Moreover, in [21], the “IC50 of IL-8 secretion, primary human monocytes, 6 nM human IL-36γ, FIG. 5C” value stood at 12 nM. Besides, the “IC50 of IL-8 secretion, primary human monocytes, 50 nM human IL-36γ, FIG. 5D” value in test [21] stood at 38.7 nM. Moreover, the “IC50 of IL-8 secretion, primary human monocytes, 20 nM human IL-36α, FIG. 5A” value in test [22] was 27.1 nM.
